In patent US20240368549A1, “ENHANCEMENT OF HEMATOPOIETIC STEM CELL AND HEMATOPOIETIC PROGENITOR CELL EXPANSION WITH AGENTS THAT ACTIVATE TAM RECEPTORS” (CANADIAN BLOOD SERVICES, priority 2021, published 2024):
Entries after “also recorded” stand apart in the source; their conditions may differ.

Tests used:
[1] = system: Umbilical cord blood (UCB) CD34+ cells; assay: Expansion of UCB CD34+ cells cultured 14 days with SCACs, GAS6 or inhibitors; type: cell-based, human
Experimental: (§1) Umbilical cord blood (UCB) CD34+ cells were cultured in StemSpan™ SFEM (StemCell Technologies) in the presence of different SCACs for 14-days and net fold expansion of TNC, CD34+ cells CD34+CD45RA− cells, and EPCR^High was calculated based on respective population on day-0 (e.g. net TNC day 14/TNC day 0). Control STFL cultures consisted of the same complete media without small molecules. Unless indicated otherwise, all cultures were supplemented with Stem Cell Factor, Flt-3 and Thrombopoietin at 100 ng/ml. All cultures also contained 10 μg/mL low-density lipoprotein (LDL, Stem Ce, Technologies) and 1% penicillin-streptomycin (Gibco). […] The improvement in HSPC expansion provided by the SCACs is exemplified with X2A in FIGS. 2A-2D. […] Culture done with adult CD34+ mobilized peripheral blood stem cells (mPBSC, CAT #70060.2, Stem Cell Technologies) also contained IL-6 (100 ng/ml) as additional cytokine (FIG. 9).
To investigate the impact of AA2P and/or SCACs on expression of AXL and its activation level, HSPC were culture in STFL with or without AA2P or the indicated SCAC for 14 days (FIG. 4F). In some cultures, the AXL kinase inhibitor Bemcentinib or a neutralizing antibody was added to cultures at day 10, and the impact on HSPC expansion was investigated in indicated cultures at day 14. Proteins level were investigated by western blot analysis or intracellular flowcytometry analysis following common procedures with anti-AXL [Goat IgG anti-AXL (Cat #AF154) or anti-p-AXL (Cat #AF2228) or anti-GAS6 (rabbit IgG, Cat #67202S, Cell Signaling Tech.) and appropriate secondary antibodies, R&D systems). […] AXL is expressed by CD34+CD45RA− HSPCs cultured in both X2A and C6 culture (FIG. 5A). […] This support that, even in the absence of exogenous GAS6 , AA2P alone or in combination with other small molecule (i.e. stem cell agonist such as UM171, SR1 . . . ) is capable of driving enough increased endogenous expression of GAS6 and AXL to support the improved expansion of CD34+CD45RA− HSPCs through para-and/or autocrine activation of AXL on HSPCs.
(§2) In each case, GAS6 was added to the cultures from days 7 to 14.
Cell expansion measured after 14 days of culture in STFL culture (FIG. 7A) and in X2A cultures (FIG. 7B). Indeed, as shown therein, the rise in cell growth (TNC) and expansion of HSPC subsets (CD34+ cells, CD34+CD45RA−, EPCRHigh cells) induced by GAS6 can be accomplished by adding GAS6 in cultures at various time point, as early as day 0 and as late as day 10, preferably at day 7.

[2] = system: NSG mice; assay: Engraftment in NSG mice of X2A-expanded cells with GAS6 or GAS6 neutralizing antibody; type: in vivo
Experimental: Mice group were transplanted with the progeny of 750 expanded CD34+ cells after 14 days of culture. The groups were; […]-expanded cells, […]-expanded cells supplemented with GAS6 (10 ng/ml) or a GAS6 neutralizing antibody (GAS6 Ab) from day-10 to day-14. As shown therein, addition of GAS6 to CB HSPC expansion cultures improves the engraftment achieved from the ex vivo expanded HSPCs.

[3] = system: CD34+ mobilized peripheral blood stem cells (mPBSC); assay: Expansion of adult mobilized peripheral blood stem cell (mPBSC) cultures; type: cell-based, human; details: GAS6 10 ng/ml, day 7 to 14; STFL and SCAC cultures
Experimental: as §1, §2

## Nc1nc(Nc2ccc3c(c2)CC[C@@H](N2CCCC2)CC3)nn1-c1cc2c(nn1)-c1ccccc1CCC2 [Bemcentinib, reference compound]
[1]; added at day 10, read at day 14, normalized to DMSO
  effect of AXL kinase inhibition on ability of X2A and C6 to expand HSPCs: reduction; also recorded: decreased

## Nc1nc(=O)n(-c2cccc(-c3ccccc3)c2)cc1Cl [Bobcat339, reference compound]
[1]; 30 μM, day-10 to day-14
  effect of TET inhibition on cell growth: reduced cell growth

B1: GAS6: natural ligand of the AXL receptor, growth arrest-specific protein 6, added to cultures at 10 ng/mL (protein, UniProt Q14393 31-678, looked up)
Growth arrest-specific …: ALLPAREATQFLRPRQRRAFQVFEEAKQGHLERECVEELCSREEAREVFENDPETDYFYPRYLDCINKYGSPYTKNSGFATCVQNLPDQCTPNPCDRKGTQACQDLMGNFFCLCKAGWGGRLCDKDVNECSQENGGCLQICHNKPGSFHCSCHSGFELSSDGRTCQDIDECADSEACGEARCKNLPGSYSCLCDEGFAYSSQEKACRDVDECLQGRCEQVCVNSPGSYTCHCDGRGGLKLSQDMDTCEDILPCVPFSVAKSVKSLYLGRMFSGTPVIRLRFKRLQPTRLVAEFDFRTFDPEGILLFAGGHQDSTWIVLALRAGRLELQLRYNGVGRVTSSGPVINHGMWQTISVEELARNLVIKVNRDAVMKIAVAGDLFQPERGLYHLNLTVGGIPFHEKDLVQPINPRLDGCMRSWNWLNGEDTTIQETVKVNTRMQCFSVTERGSFYPGSGFAFYSLDYMRTPLDVGTESTWEVEVVAHIRPAADTGVLFALWAPDLRAVPLSVALVDYHSTKKLKKQLVVLAVEHTALALMEIKVCDGQEHVVTVSLRDGEATLEVDGTRGQSEVSAAQLQERLAVLERHLRSPVLTFAGGLPDVPVTSAPVTAFYRGCMTLEVNRRLLDLDEAAYKHSDITAHSCPPVEPAAA
[1]; FIGS. 5D-5F
  HSPC expansion with GAS6 in X2A, X2B, STFL or SM6 culture: improved HSPC expansion
[1]; GAS6 10 ng/mL, days 7 to 14
  expansion of TNC and HSPC subsets, valproic acid (VPA)-containing cultures: improved
  expansion of the CB HSPC population, GAS6 with single stem cell agonists or agonist cocktails: strongly increases
[1]; GAS6 10 ng/ml, days 7 to 14
  expansion of HSPC subsets, control STFL cultures: improved
  expansion of TNC and HSPC subsets, AA2P-containing cultures: improved
  expansion of TNC and HSPC subsets, C6-containing cultures: improved
  expansion of TNC and HSPC subsets, SM6-containing cultures: improved
  expansion of TNC and HSPC subsets, SR1-containing cultures: improved
  expansion of TNC and HSPC subsets, UM171-containing cultures: improved
  expansion of TNC and HSPC subsets, X2A-containing cultures: improved
[1]; added day 0, 4, 7 or 10, STFL with or without X2A, day 14
  expansion of CB TNC and HSPC subsets, GAS6 added at different time point: superior expansion
[1]; compared to SCACs and C6 alone, 10 ng/mL
  HSPC expansion, exogenous GAS6 added to SCAC and C6 cultures: further improved HSPC expansion
[2]; X2A cultures + GAS6 10 ng/ml, 3-weeks and 16-weeks post-transplant
  levels of human platelets and human % CD45+ leucocytes: significantly superior
[2]; X2A cultures, 18-weeks after transplantation
  long-term human BM engraftment (% CD45+): improved
[2]; X2A+ GAS6 group, BM
  distribution of human lineages downstream HSC: normal distribution
[2]; X2A+ GAS6 mice, BM
  proportion of CD34+ HSPC: significantly superior
[2]; X2A+ GAS6 primary transplants
  human CFU: significantly superior
  net number of human CD34+ BM cells: significantly superior
[2]; primary X2A+ GAS6 grafts vs X2A grafts, 12-weeks
  serial engraftment activity in secondary transplants: superior serial engraftment activity
[3]
  expansion of TNC and HSPC subsets in mPBSC cultures with GAS6: further increased
